Test results taken from patent US20210261643A1, “INHIBITORS OF P-TEFB MEDIATED TRANSCRIPTION” (The Regents of the University of California, priority 2018, published 2021).

Columns and labels:
HIV TAR RNA = assay: RNA immunoprecipitation and RT-qPCR with TAR-specific primers in 293T cells; format: binding
Experimental: FIGS. 3A, 3B, 3C and 3D. HT1 prevents Tat from bringing active P-TEFb to TAR. FIG. 3A: HT1 inhibits the kinase activity of P-TEFb subunit CDK9. m:HT1 and/or f:Tat were transiently expressed in 293T cells. Cell lysates were used for IP using anti-Myc Ab (lanes 2-4), or control IgG (lane 1). Immunoprecipitates were incubated with ATP and recombinant GST-CTD proteins for in vitro kinase assay. Six replicate experiments were performed, and mean relative kinase activities are shown in the bar graph to the right. FIG. 3B: HT1 binds to TAR. m:HT1 or m:Tat (or empty vector, EV, as a control) was transiently co-expressed with TAR RNA-expressing pU16TAR in 293T cells. Cell lysates were used for IP using anti-Myc Ab or control IgG. RNA was purified from the immunoprecipitates and submitted to RT-qPCR using TAR-specific primers. Relative TAR enrichment was calculated as qPCR count using anti-Myc Ab minus using IgG, and normalized to EV. Error bars represent standard deviation from triplicate qPCR assays. […] Error bars represent standard deviation from triplicate qPCR assays. FIG. 3D: HT1 competes with Tat for TAR binding. m:HT1 and/or f:Tat were transiently co-expressed with TAR RNA-expressing pU16TAR in 293T cells. Cell lysates were used for IP using anti-Myc Ab or control IgG. RNA was purified from the immunoprecipitates and submitted to RT-qPCR using TAR-specific primers (upper panel). Relative TAR enrichment was calculated as qPCR count using anti-Myc Ab minus using IgG, and normalized to EV. Error bars represent standard deviation from triplicate qPCR assays.
Finally, since HEXIM1 ARM resembles the TAR-binding domain from Tat, we investigated whether HT1 could bind to HIV TAR. m:HT1 or m:Tat was co-expressed in 293T cells with TAR RNA, expressed under RNA Polymerase III dependent H1 promoter, and immunoprecipitated using anti-Myc Ab or IgG as a control. TAR RNAs co-immunoprecipitated with HT1 or Tat were quantified by RT-qPCR analysis. […] To test whether HT1 affects Tat-TAR interactions, increasing amounts of m:HT1 were also co-expressed with a fixed amount of f:Tat and TAR. […] As expected, HT1 also bound to endogenous 7SK snRNA.

[1] = test system: CEM, MOLT4, and MT4 T cell lines; assay: Cell growth of T cell lines stably expressing HT1 (total viable cell count); format: cell-based; details: C-HT, MO-HT, MT-HT vs CEM, total viable cell count over time
Experimental: Finally, the impact of HT1 on cell growth was assessed using three T cell lines (CEM, MOLT4, and MT4) infected by a lentivirus expressing a triple Flag-epitope tagged HT1 (3f:HT1). Polyclonal population of HT1-expressing cells (C-HT, MO-HT, and MT-HT, respectively) was selected by puromycin and confirmed by BFP expression detected by FACS analysis and WB. […] This confirmed that HT1 was specific to HIV inhibition, and that the few off-target effects had little impact on the metabolism of the cells.

[2] = test system: HIV reactivation in J-Lat 9.2 cells; assay: HIV reactivation in J-Lat 9.2 latent infection model, FACS of GFP positive cells; format: cell-based; details: PMA 100 nM
Excerpt: FIGS. 4A and 4B. Stable expression of HT1 inhibits HIV reactivation. FIG. 4A: Stable expression of HT1 inhibits HIV reactivation from 2D10 cells. 3f:HT1 was stably expressed in 2D10 cells (D-HT cells). […] Error bars represent standard deviation from triplicate FACS analysis. FIG. 4B: Stable expression of HT1 inhibits HIV reactivation from J-Lat 9.2 cells. 3f:HT1 was stably expressed in J-Lat 9.2 cells (L-HT cells). […] Error bars represent standard deviation from triplicate FACS analysis.
To test the effect of HT1 on HIV-1 in T-lymphocyte derived cells, 3f:HT1 was stably expressed in HIV latent infection models 2D10 and J-Lat 9.2 cells (D-HT and L-HT cells respectively), which carry replication-defective, GFP-flagged HIV proviruses. In both 2D10 and J-Lat 9.2, the basal HIV transcription level is undetectable, as measured through GFP expression. Compounds such as the PKC agonist PMA, the histone deacetylase inhibitor SAHA or the BET bromodomain inhibitor JQ1 reactivate HIV transcription and increase GFP-positive cells detected by FACS analysis. 2D10 cells are more sensitive to HIV reactivation than J-Lat 9.2 cells, though they harbor a mutation in the N-terminal sequence of Tat (H13L). 2D10 and D-HT cells were incubated for 24 hrs with PMA (10 nM), SAHA (5 μM) or JQ1 (1 μM) and GFP positive cells were detected by FACS analysis. […]

B1: HT1 (protein)
chain: KKKHRRRPSKKKRHWKPYYKLTWEEKKKFDEKQSLRASRIRAEMFAKGQPVAPYNTTQFLMDDHDQEEPDLVDMEPVDPYLEPWKHPGSQPRTACNNCYCKKCCFHCYACFTRKGLGISYG
modifications: left off: small tags and cut ends
immunoprecipitation of TAR RNA (in words) (HIV TAR RNA; 293T cells, anti-Myc Ab, RT-qPCR): immunoprecipitated TAR
amounts of TAR RNA co-immunoprecipitated with f:Tat (HIV TAR RNA; fixed amount of f:Tat and TAR, increasing m:HT1, anti-Flag Ab): decreased progressively
TAR bound, normalized by protein levels of m:HT1 and m:Tat (HIV TAR RNA; normalized to protein in input lysate): at least as much TAR as m:Tat
cellular growth rate versus control cells [1]: no difference
decrease of GFP expression in L-HT compared to J-Lat 9.2 [2]: 94%
